# Assay: yeast display, Sf9 membrane polyspecificity reagent, FACS + sequencing; frameworks hold sequencing errors
# Procedure, shortened: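 A nanobody's polyreactivity label depends on the gate it was sorted from. Yeast display cells were stained with 10% biotinylated, detergent-solubilized Sf9 membrane reagent for 1 hour at 4 °C, enriched on streptavidin microbeads and sorted by FACS. The low and high (top ~1%) gates were set on anti-HA fluorescence for expression and streptavidin fluorescence for reagent binding.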
row,Sequence,polyreactivity (PSR sort gate)
1,QVQLVESGGGLVQAGGSLRLSCAASGRIFSYYAMGWYRQAPWKERELVAAISSSGGSTYYADSVKGRFTISRDNAKNTVYLQMNSLKPEDTEVYYCAKLLYGFGRYGYWGQGTQVTVSS,high polyreactivity
2,QVQLVESGGGLVQAGGSLRLSCAASGRIFSYYDMGWYRQAPGKERELVATIRWSTSSTYADSVKGRFTISRDNAKPTVYLQMNILKPEDTAVYYCNAQYSQVNGYDYWGQGTQVTVSS,low polyreactivity
3,QVQLVESGGGLVQAGGSLRLSCAASGRIFSYYTLGWYRQAPGKERELVAAIRISSGGTYYADSVKGRFTISRDNAKNTVYLQMNSLKPEDTAVYYCAARYYGFPSKYDYWGQGTQVTVSS,high polyreactivity
4,QVQLVESGGGLVQAGGSLRLSCAASGRIFSYYVMGWNRQAPGKERELVAAITSGGSTNYADSEKGRFTISRDNAKNTVYLQMNSLKPEDTAVYYCNRAYTYINRLYGYWGQGTQVTVSS,high polyreactivity
5,QVQLVESGGGLVQAGGSLRLSCAASGRIFTANAMGWYRQAPGKERELVAAISWRGGSTYYADSVKGRFTISRDNAKNSVYLQLNSLKPEDTAVYYCAAQRYAPYRYEYWGQGTHVTVSS,high polyreactivity
6,QVQLVESGGGLVQAGGSLRLSCAASGRIFTAYAMGWYRQAPGKERELVASITTSGTTYYADSVKGRFTISRDNSKNTVYLQMNSLKPEDTAVYYCAADYYGYVQGGIQYGYYYLGQGTQVTVSS,low polyreactivity
7,QVQLVESGGGLVQAGGSLRLSCAASGRIFTAYHMGWYRQAPGKESELVAAITRSSGSTYYADSVKGRFTISRDNAKNTVYLQMIRLKPEVTAVYYCATDGEFWGYDSWGQGTQVTVSS,low polyreactivity
8,QVQLVESGGGLVQAGGSLRLSCAASGRIFTDYTMGWYRHAPGKERELDAAISKGGSGTYYADSVKGRFTISRDNAKNTVYLQMNSLKPEDTAVYYCNKVISTGEYDYWGQGTQVTVSS,low polyreactivity
9,QVQLVESGGGLVQAGGSLRLSCAASGRIFTFYAMGWYRQAPGKARELVASITGGGNTYYADSVKGRFTISRDNAKNTVYLQMNSLKPEDTAVYYCAAGFSYFTSVLSLDRYYYWGQGTQVTVSS,low polyreactivity
10,QVQLVESGGGLVQAGGSLRLSCAASGRIFTFYAMGWYRQAPGKERELVAAISSGGSTYYADSVKGRFTISRDNAKNTVFLQMNILKPEDTAVYYCAAVPVWYADYDYWGQGTQVTVSS,low polyreactivity
11,QVQLVESGGGLVQAGGSLRLSCAASGRIFTFYARGLDRQAPGKEREMVAAISSGGSTYYADSVKGRFTISRDNAKNTVYLQMNSLKPEDTAVYYCATQGARYYHTYGYWGQGTLVTVSS,low polyreactivity
12,QVQLVESGGGLVQAGGSLRLSCAASGRIFTGNAMGWYRQAPGKERELVAAITGRGGNTYYADSGKGRFTISRDNAKNTVYLLMNSLKPEDTAGYYGAKVFFHTPIVPEYDYWGQGTHVTVSS,low polyreactivity
13,QVQLVESGGGLVQAGGSLRLSCAASGRIFTGNAMGWYRQAPGKERELVASITYSDGSTYYADSVKGRFTISRDNAKNTVYFQMNSLKPEDTAVYYCAADILWGQGTQVTVSS,low polyreactivity
14,QVQLVESGGGLVQAGGSLRLSCAASGRIFTGNVMGLYRQAPGKERELVAAITYRGGSTYYADSVKGRFTISRDNAKNTVYLQMNSLKPEDTAVYYCNTGWDPYGYDYWGQGTQVTVSS,low polyreactivity
15,QVQLVESGGGLVQAGGSLRLSCAASGRIFTGNVMGWYRQAPGKERELVAAISVSGGRTYYADSVKGRFTISRDNAKNNVYLQMNSLKPEDTAVYYCNARFSRVWYGGDYWGQGTQVTVSS,high polyreactivity
16,QVQLVESGGGLVQAGGSLRLSCAASGRIFTGYAMGWYRQAPGKERELVATIRSRGGGTYYADSVKGRFTISRDNAKNTVYLQMNSLKPEDTAVYYCAADDYYYYFGTRYGYWRQGTQVTVSS,low polyreactivity
17,QVQLVESGGGLVQAGGSLRLSCAASGRIFTHNVMGWYRQAPGTERELVAAISGGGGSTYYADSVKGRFTLSRDNAKNNVYKQMNSLKPEDTAVYYCAKDNHYEADRYDYWGQGTQVTVSS,low polyreactivity
18,QVQLVESGGGLVQAGGSLRLSCAASGRIFTINAMGWYRQAPGKERELVASIRSTGGSTYYADSVKGRFTISRDNAKNTVYLQMNSLKPEDTAVYYCAADGGVAWGYGYWGQGTQVTVSS,low polyreactivity
19,QVQLVESGGGLVQAGGSLRLSCAASGRIFTIYAMGWYRQAPGKERELVAAISDRGTRTYYADSVKGRFTISRDNAKNTVYLQMNSLKPEDTAVYYCATDALYTYGYYYWGQGTQVTVSS,low polyreactivity
20,QVQLVESGGGLVQAGGSLRLSCAASGRIFTIYAMGWYRQAPGKERELVAAITRGGNTNYADSVKGRFTISRDNAKNTVYLQMNSLKPEDTAVYDGAVGSRSWPYDYWGQGSQVTVSS,high polyreactivity
21,QVQLVESGGGLVQAGGSLRLSCAASGRIFTIYAMGWYRQAPGKERELVATISRRGGSTYYADSVKGRFTISRDNAKNTVYFQMNSLKPEETAVYYCAADSVITWWAYDYWGQGTQVTVSS,high polyreactivity

row,Sequence,polyreactivity (PSR sort gate)
1,QVQLVESGGGLVQAGGSLRLSCAASGRIFTIYSMGWYRQAPGKERELVATISKSGGITYYADSVKGRFTISRDNAKNTVYLQMNSLKPEDTAVYYCAAAWYYSSRGFHATWGHDYWGQGTQVTVSS,low polyreactivity
2,QVQLVESGGGLVQAGGSLRLSCAASGRIFTIYTMGWYRQAPGKERELVAAISVNGGRTYYADSVKGRFTISRDNAKNTVYLQMNSLKPEDTAVYYCAARRRFGYHQQRYDYWGQGTQVTVSS,high polyreactivity
3,QVQLVESGGGLVQAGGSLRLSCAASGRIFTLYTMGWYRQAPGKERELVARITRSGGTTYYADSVKGRFTISRDNSKNTVYLQMNSLKPEDTAVYYCNVDDYFWPGAKFDYWGQGTQVTVSS,low polyreactivity
4,QVQLVESGGGLVQAGGSLRLSCAASGRIFTPNAMGWCRQAPGKERELVAAITWSGDNTYADSVKGRFTISRDNAKNTVYLQMNSLKPEDTAVYYCAAAYGYGHKKYGYWGQGTQVTVSS,low polyreactivity
5,QVQLVESGGGLVQAGGSLRLSCAASGRIFTPYAMGWYRQAPRKERELVAVIRDGSTYYADSVKGRFTISRDNAKYNVYLQMKSLIPEDTAVYYCRYDIWVWWSGAYDYWGQGTQVTVSS,low polyreactivity
6,QVQLVESGGGLVQAGGSLRLSCAASGRIFTPYAMGWYRQAPVKERELVAVIRDGSTYYADSVKGRFTISRDNAKNTVDLLMNSLKPEDTAVYYCRYDIWVWWSGAYDYWGQGTQVTVSS,low polyreactivity
7,QVQLVESGGGLVQAGGSLRLSCAASGRIFTQYTMGWYRQAPGKERELVAAISRGGGSTYYADSVKGRFTISRDNAKNTVYLQMNSLKPEDTAVYYCAAIRREVVAGDYWGQGTQVTVSS,high polyreactivity
8,QVQLVESGGGLVQAGGSLRLSCAASGRIFTRNAMGWYRPAPGKERELVAAISSRGGSTYYADSVKGRFTISRDNAKNTVYLQMNSLKPEDTAVYYCAAGYWATYDYWGQGTQVTVSS,high polyreactivity
9,QVQLVESGGGLVQAGGSLRLSCAASGRIFTRNAMGWYRQAPGKERELVAAISNGGRTNYADSVKGRFTISRDNAKYTVYLQMNSLKPEDTAVYYCNARYLPRSTIYDYWGQVTQVTVSS,high polyreactivity
10,QVQLVESGGGLVQAGGSLRLSCAASGRIFTRNAMGWYRQAPGKERELVAAISRSGGSTYYADSVKGRFTISRDNAKNTVYLQMNSLKPEDTAVYYCAKRGYDNYPFYYWGQGTQVTVSS,high polyreactivity
11,QVQLVESGGGLVQAGGSLRLSCAASGRIFTRNTMGWYRQAPGKERELVAAITSRGGSTYYADSVKGRFTISRDNAKNTVYLQMNSLKPEDTAVYYCAADKPRSYYYWGQGTQVTVSS,high polyreactivity
12,QVQLVESGGGLVQAGGSLRLSCAASGRIFTRYALGWYRHADGKVRELVATISRGGNTNYADSVKGRFTISRDNANNTVYLQMTSLKPEDTAVYYCAKYPVSRVGGYGYWGQGTQVTVSS,low polyreactivity
13,QVQLVESGGGLVQAGGSLRLSCAASGRIFTRYAMGWYRQAPGKERELVATITKSGGSTYYADSVKGRFTISRDNAKNTVYLQMNSLKPEDTAVYYFAADSWWTYQYDYWGQGTQVTVSS,low polyreactivity
14,QVQLVESGGGLVQAGGSLRLSCAASGRIFTRYTMGWYRQAPGKESELVAAISRSGGSTYYADSVKGRFTISRDNEKNTVYLQMNSLKPEDTAVYYCAAKGPYTYGYGYWGQGTQVTVSS,high polyreactivity
15,QVQLVESGGGLVQAGGSLRLSCAASGRIFTSNAMGWYRQAPGKEREFVAAITKRGGRTYYADSVKGRFTISRDNAKNTVYLQMNSLLPEDTAVYYCAAGATGTSYYGGDYWGQGTQVTVSS,high polyreactivity
16,QVQLVESGGGLVQAGGSLRLSCAASGRIFTSNAMGWYSQAPGKERELVAAITKSGGSTYYADSVKGRFTISRDNAKNTVYLQMNSLKPEVTAVYYCSAYPTSRYKYEYWGQGNQVTVSS,high polyreactivity
17,QVQLVESGGGLVQAGGSLRLSCAASGRIFTSNTMGWNRQAPGKERELGAAITSSGGYMYYADSVKGRFTISRDNAKNTGYLQMNSLKPEDTAVYYCAADTIGYHYWYDYWGQGTQVTVSS,low polyreactivity
18,QVQLVESGGGLVQAGGSLRLSCAASGRIFTSYAMGWYRQAPGKERELVAAISSGGSTYYADSVKGRFTISRDNAKNTVYLQMNSLKPEDTAVYYCNAQSTRRYYYYWGQGTQVTVSS,high polyreactivity
19,QVQLVESGGGLVQAGGSLRLSCAASGRIFTTNAMGWYRQAPGKERELVAAITYSGGTTYYADSVKGRFTISRDNAKNTVYLQMNSLKPEDTAVYYCAADVKFSTPYDYWGQGTQVTVSS,low polyreactivity
20,QVQLVESGGGLVQAGGSLRLSCAASGRIFTTYAMGWYRQAPGKERELVAAISRSGGSTYYADSVKGRFTISRDNAKNTVYLQMTSLNPEDTAVYYCAAVPTSNSFRSSFYYWGQGTQVTVSS,high polyreactivity

# From the nanobody polyreactivity screen of Harvey et al. (2022)
